How the values were obtained:
Test in all cases: ITC
[1] = molecular target: PHDVC5HCH_(NSD1) tandem domain (murine NSD1, Glu2117–Asp2207), wild type (mouse)
[2] = molecular target: PHDVC5HCH_(NSD1) H2205R (mouse) (UniProt O88491)
[3] = molecular target: PHDVC5HCH_(NSD1) R2152Q (mouse) (UniProt O88491)
[4] = molecular target: PHDVC5HCH_(NSD1) E2204A (mouse) (UniProt O88491)

Kd [1] [µM]	dH [1] [kJ/mol]	stoichiometry N [1]	Kd [2] [µM]	Kd [3] [µM]	dH [3] [kJ/mol]	Kd [4] [µM]	Substance
6.1	9.2	1.1	–	–	–	–	C2HR_(Nizp1) R415A (peptide)
36	6.28	1.1	–	–	–	–	C2HR_(Nizp1) R417A (peptide)
3.8	17.2	1.1	27.2	4.9	14.6	45.2	C2HR_(Nizp1) synthetic peptide (murine Nizp1, E397-K434), wild type
–	7.11	–	–	–	–	–	C2HR_(Nizp1) R427A (peptide)
